The conditions of test [1]: vaccination alone or combined with a low dose of estramustine; cited from earlier work.
The next test deals with pathogenic Th17 cells. Put plainly: Pathogenic Th17 differentiation in the presence of plate bound recombinant CD166, cytokine production by FACS. Particulars: 10 ug/ml, Gp49 dependent, WT or Gp49b KO. It is filed as cell-based, mouse. On the procedure: FIG. 49. Plate-bound CD166 inhibits GM-CSF and enhances IL10 production from pathogenic Th17 cells in a Gp49 dependent way. Naïve T cells from spleen of WT or Gp49b KO mouse were differentiated into pathogenic in vitro with anti-CD3/CD28 Dynabeads in the presence of plate bound recombinant CD166 (10 ug/ml) or BSA (10 ug/ml) as control. Cytokine production from Th17 cells were measured by FACS on day 4.
(§1) To investigate the role of CD166, CD4+CD44^loCD62L^hi naïve CD4 T cells were sorted by FACS and cultured in vitro with plate-bound anti-CD3 (2 ug/ml) and anti-CD28 (2 ug/ml) plus the following polarizing cytokines: IL12 (20 ng/ml) for Th1 cells; IL4 (20 ng/ml) for Th2 cells; TGFb (5 ng/ml) for iTreg cells; IL27 (25 ng/ml) for Tr1 cells; TGFb (2 ng/ml) and IL6 (25 ng/ml) for non-pathogenic Th17; TGFb (2 ng/ml), IL6 (25 ng/ml) and IL23 (20 ng/ml), or, […] (25 ng/ml) and IL23 (20 ng/ml) for pathogenic Th17. Expression of CD166 was measured by FACS on day 3. […] (FIG. 48). To determine the effect of plate-bound CD166, naïve T cells from spleen of WT or Gp49b KO mouse were differentiated into pathogenic in vitro with anti-CD3/CD28 Dynabeads in the presence of plate bound recombinant CD166 (10 ug/ml) or BSA (10 ug/ml) as control. Cytokine production from Th17 cells were measured by FACS on day 4. […] Next, the role of exogenous CD166 was assayed. […] Stained cells were analyzed by FACS.
(In general: Flow cytometry measures light scatter and fluorescence of single cells or particles in a stream.)

Another test deals with Th17 cells. Put plainly: Binding of recombinant His-tagged CD166 to Th17 cells (FACS). On the set-up: species or system mice. Particulars: exogenous, 10 ug/ml; HBSS. On the procedure:
FIG. 50. Exogenous CD166 binds weakly to Th17 cells (in HBSS). In vitro differentiated pathogenic and non-pathogenic Th17 cells were incubated with recombinant His-tagged CD166 (10 ug/ml) in indicated buffer at room temperature for 30 min, washed twice, and then incubated with anti-His antibody for 10 min. Stained cells were analyzed by FACS.
as §1

As to `C[C@]12CC[C@@H]3c4ccc(OC(=O)N(CCCl)CCCl)cc4CC[C@H]3[C@@H]1CC[C@@H]2O` [estramustine], the “patients with a ≥50% decrease in serum prostate specific antigen (PSA)” value in test [1] is listed as 54%.

B1: CD166: recombinant CD166; transmembrane glycoprotein (type I) encoded by the ALCAM gene, novel ligand of ILT-3 (protein, UniProt Q13740 28-583, looked up)
CD166 antigen: WYTVNSAYGDTIIIPCRLDVPQNLMFGKWKYEKPDGSPVFIAFRSSTKKSVQYDDVPEYKDRLNLSENYTLSISNARISDEKRFVCMLVTEDNVFEAPTIVKVFKQPSKPEIVSKALFLETEQLKKLGDCISEDSYPDGNITWYRNGKVLHPLEGAVVIIFKKEMDPVTQLYTMTSTLEYKTTKADIQMPFTCSVTYYGPSGQKTIHSEQAVFDIYYPTEQVTIQVLPPKNAIKEGDNITLKCLGNGNPPPEEFLFYLPGQPEGIRSSNTYTLTDVRRNATGDYKCSLIDKKSMIASTAITVHYLDLSLNPSGEVTRQIGDALPVSCTISASRNATVVWMKDNIRLRSSPSFSSLHYQDAGNYVCETALQEVEGLKKRESLTLIVEGKPQIKMTKKTDPSGLSKTIICHVEGFPKPAIQWTITGSGSVINQTEESPYINGRYYSKIIISPEENVTLTCTAENQLERTVNSLNVSAISIPEHDEADEISDENREKVNDQAKLIVGIVVGLLLAALVAGVVYWLYMKKSKTASKHVNKDLGNMEENKKLEENNHKTEA
With B1, in the test with pathogenic Th17 cells, the “GM-CSF production from pathogenic Th17 cells” value was “inhibits” and the “IL10 production from pathogenic Th17 cells” value is “enhances”. Also, the “binding to Th17 cells” value in the test with Th17 cells was “binds weakly”.

Source of the values: patent US12447213B2, “Modulation of novel immune checkpoint targets” (The Brigham and Women's Hospital, Inc., priority 2016, dated 2025).
